# Laboratory results: the supplement of paper PMC11780869
# Tested on: Bacillus subtilis
# Test: cleaved RNA product abundance (RNA/gDNA barcode ratio) relative to median wild-type variant (ratio to wild type); higher = more accumulation of the downstream cleavage product
# In short: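 Sequencing of barcodes from gel-selected, reverse-transcribed cleaved RNA and from genomic DNA, with UMI collapsing, yielded a per-construct RNA:gDNA ratio. Scaled to the median construct with the unmutated site, this ratio is the cleaved product abundance. The barcoded reporters (truncated aprE or tetM mRNAs with mutagenized RNase Y cleavage-site windows) were integrated into the B. subtilis chromosome, and cultures grew in LB at 37°C from OD600 0.0003 to 0.3.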
# [1] = experiment (reporter, strain, medium): exp 4a: truncated aprE reporter, strain BJT201 with 2% xylose (RNase J1 expressed), cleavage site: cggR-gapA (positions -7 to +36 mutated)
# [2] = experiment (reporter, strain, medium): exp 8a: truncated aprE reporter, strain BJT201 with 2% xylose (RNase J1 expressed), cleavage site: glnRA (positions -5 to +31 mutated)
# [3] = experiment (reporter, strain, medium): exp 2b: truncated aprE reporter, strain BJT200, cleavage site: cggR-gapA (positions -7 to +36 mutated)
# [4] = experiment (reporter, strain, medium): exp 6: tetM reporter, strain 168, cleavage site: cggR-gapA (positions -7 to +36 mutated)
Sequence,cleaved RNA product abundance [1],cleaved RNA product abundance [3],further results
ACAGACGAAGGAGCCGCAAAAAAGTTATTAAGGGATGAATAAACCCTCTATATAAATATCTCTCACTTATTTAAA,0.22,–,–
CGACATGTCCCGCTTCTTTCATTAATCCGTTAGCAACGGTTTTACTATATACATTTACCTTTTAAGAGGAGGAAT,–,–,cleaved RNA product abundance [2]: 0.495
ACAGACGAAGGAGCCGCAAAGAAGTTATTAACGGATGAATAATCCCTCCATATAAATATCTCTCACTTATTTAAA,0.129,–,–
ACAGACGAAGGAGCCGCAAAGAAGTTATGACGGGATGAATAATCCCTCAATATAAATATCTCTCACTTATTTAAA,0.844,–,–
ACAGACGAAGGAGCCGCAAAGAAGTCATTAAGGGATGAATAATCCCACAATATAAATATCTCTCACTTATTTAAA,0.2,0.142,–
ACAGACGAAGGAGCCGCAAAGAAGTTATTATGGGATGAATAATCCCTCAATATAAAAATCTCTCACTTATTTAAA,0.391,0.279,–
CGACATGTCCCGCTTCTTTCATTAATCCGTTAGCAACTGTATTGCTATATACATTTACCCTTTAAGAGGAGGAAT,–,–,cleaved RNA product abundance [2]: 1.1
ACAGACGAAGGAGCCGCAAATAAGTTATTTAGGGATGAATAATCCCTCAATATAAATATCTCTCACTTATTTAAA,0.766,0.993,–
CGACATGTCCCGCTTCTTTCATTATTCCGTTAGCAACTGTTTTGCTATATACGTTTACCTTTTAAGAGGAGGAAT,–,–,cleaved RNA product abundance [2]: 0.645
CGACATGTCCCGCTTCTTTCATTATTCCGTTAGCAACTGTTTTGCTATACACATTTACCTTTTAAGAGGAGGAAT,–,–,cleaved RNA product abundance [2]: 0.807
ACAGACGAAGGAGCCGCAAAGAAGTTATTAAGGGATGAATAATCCCTCGTTATAAATATCTCTCACTTATTTAAA,0.157,0.097,–
ACAGACGAAGGAGCCGCAAAGAAGTTATTAAGAGATGAATAATCGCTCAATATAAATATCTCTCACTTATTTAAA,0.0997,–,–
ACAGACGAAGGAGCCGCAAAGAAGTTATTTAGGGATGAATAATCCCTTAATATAAATATCTCTCACTTATTTAAA,1.39,–,–
ACAGACGAAGGAGCCGCAAAGAAGTTAGTAAGGGATGAATAAACCCTCAATATAAATATCTCTCACTTATTTAAA,0.158,–,–
ACAGACGAAGGAGCCGCAAAGAAGTTAGTAAGGAATGAATAATCCCTCAATATAAATATCTCTCACTTATTTAAA,–,0.0912,–
ACAGACGAAGGAGCCGCAAAGAAGTTATTAATGGATGAATAATCCCTCAATATCAATATCTCTCACTTATTTAAA,0.0753,–,–
ACAGACGAAGGAGCCGCAAAGAATATATTAAGGGATGAATAATCCCTCAATATAAATATCTCTCACTTATTTAAA,0.375,–,–
ACAGACGAAGGAGCCGCAAAAAAGTTATTAAGGGATGTATAATCCCTCAATATAAATATCTCTCACTTATTTAAA,1.09,1.06,–
CGACATGTCCCGCTTCTTTCATTAATCCGTTACCAACTCTTTTGCTATATACATTTACCTTTTAAGAGGAGGAAT,–,–,cleaved RNA product abundance [2]: 0.128
CGACATGTCCCGCTTCTTTCATTATTCCGTTTTCAACTGTTTTGCTATATACATTTACCTTTTAAGAGGAGGAAT,–,–,cleaved RNA product abundance [2]: 0.361

Sequence,cleaved RNA product abundance [1],cleaved RNA product abundance [3],further results
ACAGACGAAGGAGCCGCAAAGAAGTTATTAAGGGATGAATAATACCTCAATATAATTATCTCTCACTTATTTAAA,0.165,–,–
CGACATGTCCCGCTTCTTTCATTAATCCGTTAGCAACTATTCTGCTATATACATTTACCTTTTAAGAGGAGGAAT,–,–,cleaved RNA product abundance [2]: 0.838
ACAGACGAAGGAGCCGCACAGAAGTTATTAAGGGATTAATAATCCCTCAATATAAATATCTCTCACTTATTTAAA,0.962,–,–
ACAGACGAAGGAGCCGCAAAGAAGTTATTAAGGGATGAATAATATCTCAATATAAATATCTCTCACTTATTTAAA,0.116,0.0986,–
ACAGACGAAGGAGCCGCAAACAAGTTATTAAGGGATAAATAATCCCTCAATATAAATATCTCTCACTTATTTAAA,0.649,–,–
CGACATGTCCCGCTTCTTTCATTAATCCGTTAGAAACTGTTTTGATATATACATTTACCTTTTAAGAGGAGGAAT,–,–,cleaved RNA product abundance [2]: 0.221
ACAGACGAAGGAGCCGCAACGAAGTTATTAAGGGATAAATAATCCCTCAATATAAATATCTCTCACTTATTTAAA,0.739,0.891,–
ACAGACGAAGGAGCCGCAAAGAAGCTATTAAGGGAAGAATAATCCCTCAATATAAATATCTCTCACTTATTTAAA,0.4,0.265,–
ACAGACGAAGGAGCCGCAAAGAAGTTATTAAGGGAAGAATAATCCCTCAATATAAATATCTCTCACTTATTTAAA,0.633,0.485,cleaved RNA product abundance [4]: 0.691
ACAGACGAAGGAGCCGCAAAGAAGTAATTAAGGGATCAATAATCCCTCAATATAAATATCTCTCACTTATTTAAA,0.305,0.181,–
CGACATGTCCCGCTTCTTTCATTACTCCGTTAGCAACTGTTTTGCTATAGACATTTACCTTTTAAGAGGAGGAAT,–,–,cleaved RNA product abundance [2]: 0.738
CGACATGTCCCGCTTCTTTCATTACTCCGTTAGCAACTGTTTTGCAATATACATTTACCTTTTAAGAGGAGGAAT,–,–,cleaved RNA product abundance [2]: 0.515
CGACATGTCCCGCTTCTTTCATTAATCCGATAGCAACTGTTTTGCTATATACATTTACCTTTTAAGAGGAGGAAT,–,–,cleaved RNA product abundance [2]: 0.795
CGACATGTCCCGCTTCTTTCATTAATCCGTTACCAACTGTTTTGCTAAATACATTTACCTTTTAAGAGGAGGAAT,–,–,cleaved RNA product abundance [2]: 0.169
CGACATGTCCCGCTTCTTTCATTAATCCGTTAGCAAATGTTTTGCTATATACATTTACCATTTAAGAGGAGGAAT,–,–,cleaved RNA product abundance [2]: 1.4
ACAGACGAAGGAGCCGCAAAGATGTTATTAAGGTATGAATAATCCCTCAATATAAATATCTCTCACTTATTTAAA,0.161,–,–
ACAGACGAAGGAGCCGCAAAGAAGTTTTTAAGGGATTAATAATCCCTCAATATAAATATCTCTCACTTATTTAAA,0.364,0.364,–
ACAGACGAAGGAGCCGCAAAGAAGGTCTTAAGGGATGAATAATCCCTCAATATAAATATCTCTCACTTATTTAAA,0.115,–,–
CGACATGTCCCGCTTCTTTCATTAATCCGTTAGAAACTGTTTTGCTATATACTTTTACCTTTTAAGAGGAGGAAT,–,–,cleaved RNA product abundance [2]: 0.217
ACAGACGAAGGAGCCGCAAAGAAGTTATTAATGGATGAATAATTCATCAATATAAATATCTCTCACTTATTTAAA,0.316,–,–

Sequence,cleaved RNA product abundance [1],cleaved RNA product abundance [3],further results
ACAGACGAAGGAGCCGCAAAGAAGTTATGAAGGGATGAATAATCCATCAATATAAATATCTCTCACTTATTTAAA,–,0.185,–
CGACATGTCCCGCTTCTTTCATTAATCCATTAGCAACTGTTTTGCTATATACATCTACCTTTTAAGAGGAGGAAT,–,–,cleaved RNA product abundance [2]: 0.942
ACAGACGAAGGAGCCGCAAAGAAGTTATAAAGGGATTAATAATCCCTCAATATAAATATCTCTCACTTATTTAAA,0.362,0.333,–
ACAGACGAAGGAGCCGCACAGAAGTTATTAAGGTATGAATAATCCCTCAATATAAATATCTCTCACTTATTTAAA,0.198,0.102,–
ACAGACGAAGGAGCCGCAAAGAAGTCATTAAGGGATGAATAATCCCTCAATATAAACATCTCTCACTTATTTAAA,0.333,–,–
ACAGACGAAGGAGCCGCAAAGAAGTTATTAAGGGATCAATAGTCCCTCAATATAAATATCTCTCACTTATTTAAA,0.828,–,–
ACAGACGAAGGAGCCGCAAAGAAGTTATTAAGGGATGAATAATCCCTCAATATATATATTTCTCACTTATTTAAA,0.817,–,–
ACAGACGAAGGAGCCGCAATGAAGTTATTAAGGGATGAATATTCCCTCAATATAAATATCTCTCACTTATTTAAA,0.519,0.573,–
ACAGACGAAGGAGCCGCAAAGAAATTATTAAGGGATGAATAATCCGTCAATATAAATATCTCTCACTTATTTAAA,0.261,0.192,–
ACAGACGAAGGAGCCGCAAAGAAGTTATTAAGGGATGAATAATCCCTCAAAATAAATAGCTCTCACTTATTTAAA,–,0.26,–
ACAGACGAAGGAGCCGCAAAGTAGTTATTAAGGGATGAATAATCCCTCATTATAAATATCTCTCACTTATTTAAA,0.396,–,–
ACAGACGAAGGAGCCGCAATGAAGTTATTATGGGATGAATAATCCCTCAATATAAATATCTCTCACTTATTTAAA,0.464,–,–
ACAGACGAAGGAGCCGCAAAGAAGTTATTAAGGGATGAATAATCCCTCAATTTAAATATCTCTCACTTATTTAAA,0.218,0.182,cleaved RNA product abundance [4]: 0.195
ACAGACGAAGGAGCCGCAAAGAAGCTATTAAGGGATAAATAATCCCTCAATATAAATATCTCTCACTTATTTAAA,–,0.479,–
CGACATGTCCCGCTTCTTTCATTAATCCGTTACTAACTGTTTTGCTATATACATTTACCTTTTAAGAGGAGGAAT,–,–,cleaved RNA product abundance [2]: 0.155
ACAGACGAAGGAGCCGCAAAGAATTTATTAAGGGATGAATAATCCCTCAATATAAATAACTCTCACTTATTTAAA,0.544,–,–
ACAGACGAAGGAGCCGCAAAGAAATTATTAAGGGATGAATAATCCCTCAAGATAAATATCTCTCACTTATTTAAA,0.189,0.188,–
ACAGACGAAGGAGCCGCAAAGAAGTTATTAAGTGATGAATAAACCCTCAATATAAATATCTCTCACTTATTTAAA,0.0945,0.113,–
ACAGACGAAGGAGCCGCAAAGAAGTTATTAAGGAATAAATAATCCCTCAATACAAATATCTCTCACTTATTTAAA,0.0573,–,–
CGACATGTCCCGCTTCTTTCATTAATCCGATTGCAACTGTTTTGCTATATACATTTACCTTTTAAGAGGAGGAAT,–,–,cleaved RNA product abundance [2]: 0.294
